Our source for the Cell death/HR intensity, pVnt1-R3aGS4, 1dpi, Cell death/HR intensity, pVnt1-R3aGS4, 2dpi and Cell death/HR intensity, pVnt1-R3aGS4, 3dpi values is patent US20130097734A1.

Common to all, as to test: cell-based or functional assay
The target in test [1] is AVR3a^KI effector protein of Phytophthora infestans (Phytophthora infestans) (UniProt Q572D3).
Test [2] concerns the target T1, AVR3a homolog from Phytophthora palmivora designated as L7B (Phytophthora palmivora).
T1 sequence: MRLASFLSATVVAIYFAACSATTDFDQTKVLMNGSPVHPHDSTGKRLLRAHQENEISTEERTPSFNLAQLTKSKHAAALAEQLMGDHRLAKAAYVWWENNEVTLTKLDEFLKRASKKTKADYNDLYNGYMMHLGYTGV

Test [3] has as its target T2, AVR3a homolog from Phytophthora palmivora designated as L3B (Phytophthora palmivora).
T2 sequence: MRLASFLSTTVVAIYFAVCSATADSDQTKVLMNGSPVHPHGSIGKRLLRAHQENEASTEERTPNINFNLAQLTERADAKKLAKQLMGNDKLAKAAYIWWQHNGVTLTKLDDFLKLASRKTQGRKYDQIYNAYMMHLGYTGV

Test [4] deals with T3, AVR3a homolog from Phytophthora palmivora designated as L6B (Phytophthora palmivora).
T3 sequence: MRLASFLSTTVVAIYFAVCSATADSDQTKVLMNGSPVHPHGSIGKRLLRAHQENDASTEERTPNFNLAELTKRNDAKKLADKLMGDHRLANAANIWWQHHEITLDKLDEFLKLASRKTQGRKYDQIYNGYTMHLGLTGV

B1: modified R3a protein corresponding to clone GS4 (protein)
chain: MEIGLAVGGAFLSSALNVLFDRLAPHGDLLNMFQKHKDHVKLLKKLEDILLGLQIVLSDAENKQASNRHVSQWFNKLQNAVDGAENLIEQVNYEALRLKVEGQHQNLAETSNQQVSDLNLCFSDDFFLNIKDKLEETIETLEVLEKQIGRLGLKEHFGSTKQETRTPSTSLVDDSDIFGRQNDIEDLIDRLLSEDASGKKRTVVPIVGMGGLGKTTLAKAVYNDERVQIHFGLKAWFCVSEAFDAFRITKGLLQEIGSFDLKADDNLNQLQVKLKERLKGKKFLIVLDDVWNDNYNKWDELRNVFVQGDIGSKIIVTTRKESVALMMGNEQISMDNLSTESSWSLFKTHAFENMGPMGHPELEEVGKQIAAKCKGLPLALKTLAGMLRSKSEVEEWKRILRSEIWELPHNDILPALMLSYNDLPAHLKRCFSFCAIFPKDYPFRKEQVIHLWIANGLVPQEDVIIEDSGNQYFLELRSRSLFERVPNPSQGNTENLFLMHDLVNDLAQIASSKLCIRLEESQGSHMLEQSQHLSYSMGYGGEFEKLTPLYKLEQLRTLLPTCIDLPDCCHHLSKRVLHNILPRLTSLRALSLSCYEIVELPNDLFIKLKLLRFLDISRTEIKRLPDSICALYNLETLLLSSCYDLEELPLQMEKLINLRHLDISNTRPLKMPLHLSKLKSLQVLVGAKFLIGGLRMEDLGEVHNLYGSLSVVELQNVVDRREAVKAKMREKNHVDRLYLEWSGSSSADNSQTERDILDELRPHKNIKVVKITGYRGTNFPNWLADPLFLKLVKLSLRNCKNCYSLPALGQLPFLKFLSIREMHGITEVTEEFYGSWSSKKPFNCLEKLEFKDMPEWKQWDLLGSGEFPILEKLLIENCPELSLETVPIQLSSLKSFDVIGSPLVINFPLSILPTTLKRIKISDCQKLKLEQPTGEISMFLEELTLIKCDCIDDISPELLPRARKLWVQDWHNLTRFLIPTATETLDIWNCENVEILSVACGGTQMTSLTIAYCKKLKWLPERMQELLPSLKELHLSNCPEIESFPEGGLPFNLQQLAIRYCKKLVNGRKEWHLQRRLCLTALIIYHDGSDEEIVGGENWELPSSIQRLTIVNLKTLSSQHLKNLTSLQYLFIRGNLPQIQPMLEQGQCSHLTSLQSLQISSLQSLPESALPSSLSHLEISHCPNLQSLPESALPSSLSQLTINNCPNLQSLSESTLPSSLSQLEISFCPNLQYLPLKGMPSSLSELSIYKCPLLKPQLEFDKGEYWPNIAQFPTIKIDRECM
On to B1, for which the Cell death/HR intensity, pVnt1-R3aGS4, 1dpi stood at 2 in test [1], 2 in test [2], 0 in test [3] and 0 in test [4]. Moreover, the Cell death/HR intensity, pVnt1-R3aGS4, 2dpi is 4 in test [1], 2 in test [2], 2 in test [3] and 0 in test [4]. Further, the Cell death/HR intensity, pVnt1-R3aGS4, 3dpi in test [1] was found to be 4; in test [2], 2; in test [3], 3; in test [4] it was 0.
